Experimental data reported in patent publication US20150118700.

B1: CFP-T7-H2-62Q (protein)
chain: MTSNRADTRVIVVGGGGTIGSSTALHLVRSGYAPANITVLDTFEIPSAQSAGHDLNKIMGIQLRNKVDLQMSLEARQMWKEDELFQPFFHNTGRMDCEHTPEGIEDLKKLYQALHDAGAGLEKTHAWLDNEDEILSKMPLLQRDQIQGWKAIWSQDGGWLAAAKAINAIGQFLKERGVKFGFGGAGSFKQPLFDDEGTTCIGVETADGTKYYADKVVLAAGAWSPTLVDLEDQCCSKAWVYAHIQLTPEEAAEYKGVPVVYNGEFGFFFEPDEFGVIKVCDEFPGFSRFKEHQPYGAPSPKRISVPRSHAKHPTDTYPDASEVSIKKAIATFLPRFQDKELFNRALCWCTDTADAALLMCEHPKWKNFILATGDSGHSFKILPNVGKYVVELIEGRLPEEMAYQWRWRPGGDALKSRRAAPPKDLADMPGWKHDPKL
B2: CFP-T7-H9 (protein)
chain: MTSNRADTRVIVVGGGGTIGSSTALHLVRSGYAPANITVLDTFEIPSAQSAGHDLNKIMGIDLHNKVDLQMSLEARQMWKEDELFQPFFHNTGRMDCEHTPEGIEDLKKLYQALHDAGAGLEKTHAWLDNEDEILSKMPLLQRDQIQGWKAIWSQDGGWLAAAKAINAIGQFLKERGVKFGFGGAGSFKQPLFDDEGTTCIGVETADGTKYYADKVVLAAGAWSPTLVDLEDQCCSKAWVYAHIQLTPEEAAEYKGVPVVYNGEFGFFFEPDEFGVIKVCDEFPGFSRFKEHQPYGAPSPKRISVPRSHAKHPTDTYPDASEVSIKKAIATFLPRFQDKELFNRALCWCTDTADAALLMCEHPKWKNFILATGDSGHSFKILPNVGKYVVELIEGRLPEEMAYQWRWRPGGDALKSRRAAPPKDLADMPGWKHDPKL
B3: CFP-T7-H10 (protein)
chain: MTSNRADTRVIVVGGGGTIGSSTALHLVRSGYAPANITVLDTFEIPSAQSAGHDLNKIMGIDLRNKVDLQMSLEARQMWKEDELFQPFFHNTGRMDCEHTPEGIEALKKLYQALHDAGAGLEKTHAWLDNEDEILSKMPLLQRDQIQGWKAIWSQDGGWLAAAKAINAIGQFLKERGVKFGFGGAGSFKQPLFDDEGTTCIGVETADGTKYYADKVVLAAGAWSPTLVDLEDQCCSKAWVYAHIQLTPEEAAEYKGVPVVYNGEFGFFFEPDEFGVIKVCDEFPGFSRFKEHQPYGAPSPKRISVPRSHAKHPTDTYPDASEVSIKKAIATFLPRFQDKELFNRALCWCTDTADAALLMCEHPKWKNFILATGDSGHSFKILPNVGKYVVELIEGRLPEEMAYQWRWRPGGDALKSRRAAPPKDLADMPGWKHDPKL
B4: CFP-T7-H2 (protein)
chain: MTSNRADTRVIVVGGGGTIGSSTALHLVRSGYAPANITVLDTFEIPSAQSAGHDLNKIMGIALRNKVDLQMSLEARQMWKEDELFQPFFHNTGRMDCEHTPEGIEDLKKLYQALHDAGAGLEKTHAWLDNEDEILSKMPLLQRDQIQGWKAIWSQDGGWLAAAKAINAIGQFLKERGVKFGFGGAGSFKQPLFDDEGTTCIGVETADGTKYYADKVVLAAGAWSPTLVDLEDQCCSKAWVYAHIQLTPEEAAEYKGVPVVYNGEFGFFFEPDEFGVIKVCDEFPGFSRFKEHQPYGAPSPKRISVPRSHAKHPTDTYPDASEVSIKKAIATFLPRFQDKELFNRALCWCTDTADAALLMCEHPKWKNFILATGDSGHSFKILPNVGKYVVELIEGRLPEEMAYQWRWRPGGDALKSRRAAPPKDLADMPGWKHDPKL
B5: CFP-T7-H7 (protein)
chain: MTSNRADTRVIVVGGGGTIGSSTALHLVRSGYAPANITVLDTFEIPSAQSAGHDLNKIMGIDLANKVDLQMSLEARQMWKEDELFQPFFHNTGRMDCEHTPEGIEDLKKLYQALHDAGAGLEKTHAWLDNEDEILSKMPLLQRDQIQGWKAIWSQDGGWLAAAKAINAIGQFLKERGVKFGFGGAGSFKQPLFDDEGTTCIGVETADGTKYYADKVVLAAGAWSPTLVDLEDQCCSKAWVYAHIQLTPEEAAEYKGVPVVYNGEFGFFFEPDEFGVIKVCDEFPGFSRFKEHQPYGAPSPKRISVPRSHAKHPTDTYPDASEVSIKKAIATFLPRFQDKELFNRALCWCTDTADAALLMCEHPKWKNFILATGDSGHSFKILPNVGKYVVELIEGRLPEEMAYQWRWRPGGDALKSRRAAPPKDLADMPGWKHDPKL
B6: CFP-T7-H11 (protein)
chain: MTSNRADTRVIVVGGGGTIGSSTALHLVRSGYAPANITVLDTFEIPSAQSAGHDLNKIMGIDLRNKVDLQMSLEARQMWKEDELFQPFFHNTGRMDCEHTPEGIEKLKKLYQALHDAGAGLEKTHAWLDNEDEILSKMPLLQRDQIQGWKAIWSQDGGWLAAAKAINAIGQFLKERGVKFGFGGAGSFKQPLFDDEGTTCIGVETADGTKYYADKVVLAAGAWSPTLVDLEDQCCSKAWVYAHIQLTPEEAAEYKGVPVVYNGEFGFFFEPDEFGVIKVCDEFPGFSRFKEHQPYGAPSPKRISVPRSHAKHPTDTYPDASEVSIKKAIATFLPRFQDKELFNRALCWCTDTADAALLMCEHPKWKNFILATGDSGHSFKILPNVGKYVVELIEGRLPEEMAYQWRWRPGGDALKSRRAAPPKDLADMPGWKHDPKL
B7: CFP-T7-H12 (protein)
chain: MTSNRADTRVIVVGGGGTIGSSTALHLVRSGYAPANITVLDTFEIPSAQSAGHDLNKIMGIDLRNKVDLQMSLEARQMWKEDELFQPFFHNTGRMDCEHTPEGIERLKKLYQALHDAGAGLEKTHAWLDNEDEILSKMPLLQRDQIQGWKAIWSQDGGWLAAAKAINAIGQFLKERGVKFGFGGAGSFKQPLFDDEGTTCIGVETADGTKYYADKVVLAAGAWSPTLVDLEDQCCSKAWVYAHIQLTPEEAAEYKGVPVVYNGEFGFFFEPDEFGVIKVCDEFPGFSRFKEHQPYGAPSPKRISVPRSHAKHPTDTYPDASEVSIKKAIATFLPRFQDKELFNRALCWCTDTADAALLMCEHPKWKNFILATGDSGHSFKILPNVGKYVVELIEGRLPEEMAYQWRWRPGGDALKSRRAAPPKDLADMPGWKHDPKL
B8: CFP-T7-H2-62E (protein)
chain: MTSNRADTRVIVVGGGGTIGSSTALHLVRSGYAPANITVLDTFEIPSAQSAGHDLNKIMGIELRNKVDLQMSLEARQMWKEDELFQPFFHNTGRMDCEHTPEGIEDLKKLYQALHDAGAGLEKTHAWLDNEDEILSKMPLLQRDQIQGWKAIWSQDGGWLAAAKAINAIGQFLKERGVKFGFGGAGSFKQPLFDDEGTTCIGVETADGTKYYADKVVLAAGAWSPTLVDLEDQCCSKAWVYAHIQLTPEEAAEYKGVPVVYNGEFGFFFEPDEFGVIKVCDEFPGFSRFKEHQPYGAPSPKRISVPRSHAKHPTDTYPDASEVSIKKAIATFLPRFQDKELFNRALCWCTDTADAALLMCEHPKWKNFILATGDSGHSFKILPNVGKYVVELIEGRLPEEMAYQWRWRPGGDALKSRRAAPPKDLADMPGWKHDPKL
B9: CFP-T7-H13 (protein)
chain: MTSNRADTRVIVVGGGGTIGSSTALHLVRSGYAPANITVLDTFEIPSAQSAGHDLNKIMGIDLRNKVDLQMSLEARQMWKEDELFQPFFHNTGRMDCEHTPEGIEDLKKLYQKLHDAGAGLEKTHAWLDNEDEILSKMPLLQRDQIQGWKAIWSQDGGWLAAAKAINAIGQFLKERGVKFGFGGAGSFKQPLFDDEGTTCIGVETADGTKYYADKVVLAAGAWSPTLVDLEDQCCSKAWVYAHIQLTPEEAAEYKGVPVVYNGEFGFFFEPDEFGVIKVCDEFPGFSRFKEHQPYGAPSPKRISVPRSHAKHPTDTYPDASEVSIKKAIATFLPRFQDKELFNRALCWCTDTADAALLMCEHPKWKNFILATGDSGHSFKILPNVGKYVVELIEGRLPEEMAYQWRWRPGGDALKSRRAAPPKDLADMPGWKHDPKL
B10: CFP-T7-H6 (protein)
chain: MTSNRADTRVIVVGGGGTIGSSTALHLVRSGYAPANITVLDTFEIPSAQSAGHDLNKIMGIDLRNKVDLQMSLEARQMWKEDELFQPFFHNTGRMDCEHTPEGIEDLKKLYQALHDAGAGLEKTHAWLDNEDEILSKMPLLQRDQIQGWKAIWSQDGGWLAAAKAINAIGQFLKERGVKFGFGGAGSFKQPLFDDEGTTCIGVETADGTKYYADKVVLAAGAWSPTLVDLEDQCCSKAWVYAHIQLTPEEAAEYKGVPVVYNGEFGFFFEPDEFGVIKVCDEFPGFSRFKEHQPYGAPSPKRISVPRSHAKHPTDTYPDASEVSIKKAIATFLPRFQDKELFNRALCWCTDTADAALLMCEHPKWKNFILATGDSGHSFKILPNVGKYVVELIEGRLPEEMAYQWRWRPGGDALKSRRAAPPKDLADMPGWKHDPKL
B11: CFP-T7-H8 (protein)
chain: MTSNRADTRVIVVGGGGTIGSSTALHLVRSGYAPANITVLDTFEIPSAQSAGHDLNKIMGIDLENKVDLQMSLEARQMWKEDELFQPFFHNTGRMDCEHTPEGIEDLKKLYQALHDAGAGLEKTHAWLDNEDEILSKMPLLQRDQIQGWKAIWSQDGGWLAAAKAINAIGQFLKERGVKFGFGGAGSFKQPLFDDEGTTCIGVETADGTKYYADKVVLAAGAWSPTLVDLEDQCCSKAWVYAHIQLTPEEAAEYKGVPVVYNGEFGFFFEPDEFGVIKVCDEFPGFSRFKEHQPYGAPSPKRISVPRSHAKHPTDTYPDASEVSIKKAIATFLPRFQDKELFNRALCWCTDTADAALLMCEHPKWKNFILATGDSGHSFKILPNVGKYVVELIEGRLPEEMAYQWRWRPGGDALKSRRAAPPKDLADMPGWKHDPKL
B12: CFP-T7-H14 (protein)
chain: MTSNRADTRVIVVGGGGTIGSSTALHLVRSGYAPANITVLDTFEIPSAQSAGHDLNKIMGIDLRNKVDLQMSLEARQMWKEDELFQPFFHNTGRMDCEHTPEGIEDLKKLYQRLHDAGAGLEKTHAWLDNEDEILSKMPLLQRDQIQGWKAIWSQDGGWLAAAKAINAIGQFLKERGVKFGFGGAGSFKQPLFDDEGTTCIGVETADGTKYYADKVVLAAGAWSPTLVDLEDQCCSKAWVYAHIQLTPEEAAEYKGVPVVYNGEFGFFFEPDEFGVIKVCDEFPGFSRFKEHQPYGAPSPKRISVPRSHAKHPTDTYPDASEVSIKKAIATFLPRFQDKELFNRALCWCTDTADAALLMCEHPKWKNFILATGDSGHSFKILPNVGKYVVELIEGRLPEEMAYQWRWRPGGDALKSRRAAPPKDLADMPGWKHDPKL

Molecular target: T1, α-fructosyl hexapeptide (α-fructosyl-valyl-histidyl-leucyl-threonyl-propyl-glutamic acid)
T1 chain: VHLTPE

Row | Protein | αF6P oxidation activity ratio, relative to CFP-T7-H2 designated to be 100 (relative (CFP-T7-H2 = 100)) | αF6P oxidation activity ratio, relative to CFP-T7-H6 designated to be 100 (relative (CFP-T7-H6 = 100)) | αF6P oxidation activity ratio (reference, designated to be 100) (relative (CFP-T7-H2 = 100)) | αF6P oxidation activity, relative to αFVH oxidation activity designated to be 100 (relative (αFVH = 100)) | αF6P oxidation activity ratio (reference, designated to be 100) (relative (CFP-T7-H6 = 100))
1 | B1 | 11 | – | – | – | –
2 | B2 | – | 44 | – | – | –
3 | B3 | – | 301 | – | – | –
4 | B4 | – | – | 100 | 0.0735 | –
5 | B5 | – | 17 | – | – | –
6 | B6 | – | 951 | – | 12.5 | –
7 | B7 | – | 636 | – | 11.6 | –
8 | B8 | 21 | – | – | – | –
9 | B9 | – | 207 | – | 4.33 | –
10 | B10 | 513 | – | – | 3 | 100
11 | B11 | – | 2 | – | – | –
12 | B12 | – | 183 | – | 4.22 | –
